# Like-named read-outs stand apart in the source and are kept apart here.
# T1: hT1/rT2 (human TAP1 with rat TAP2-FLAG) (human | rat, UniProt Q03518 1-748; P36372 1-703)
# T1 sequence 1: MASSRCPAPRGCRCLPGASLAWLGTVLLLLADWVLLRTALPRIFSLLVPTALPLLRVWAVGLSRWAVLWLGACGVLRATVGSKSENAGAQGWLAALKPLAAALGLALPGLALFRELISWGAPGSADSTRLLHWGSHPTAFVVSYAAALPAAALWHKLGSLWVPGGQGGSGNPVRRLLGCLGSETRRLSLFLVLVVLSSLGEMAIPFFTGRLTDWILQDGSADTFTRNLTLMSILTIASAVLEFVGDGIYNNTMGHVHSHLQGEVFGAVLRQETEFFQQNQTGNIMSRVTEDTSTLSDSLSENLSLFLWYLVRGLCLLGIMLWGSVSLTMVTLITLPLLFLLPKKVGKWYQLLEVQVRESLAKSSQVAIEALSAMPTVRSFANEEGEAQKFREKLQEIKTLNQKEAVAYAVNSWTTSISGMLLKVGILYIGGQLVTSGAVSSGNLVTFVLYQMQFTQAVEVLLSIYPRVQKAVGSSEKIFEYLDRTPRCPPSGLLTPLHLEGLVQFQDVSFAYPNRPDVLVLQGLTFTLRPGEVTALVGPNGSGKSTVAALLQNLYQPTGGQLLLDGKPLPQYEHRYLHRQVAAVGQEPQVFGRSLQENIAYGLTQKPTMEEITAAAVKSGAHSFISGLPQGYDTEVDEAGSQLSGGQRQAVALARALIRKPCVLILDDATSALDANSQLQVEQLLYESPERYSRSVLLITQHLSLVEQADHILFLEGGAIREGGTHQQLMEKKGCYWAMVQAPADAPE
# T1 sequence 2: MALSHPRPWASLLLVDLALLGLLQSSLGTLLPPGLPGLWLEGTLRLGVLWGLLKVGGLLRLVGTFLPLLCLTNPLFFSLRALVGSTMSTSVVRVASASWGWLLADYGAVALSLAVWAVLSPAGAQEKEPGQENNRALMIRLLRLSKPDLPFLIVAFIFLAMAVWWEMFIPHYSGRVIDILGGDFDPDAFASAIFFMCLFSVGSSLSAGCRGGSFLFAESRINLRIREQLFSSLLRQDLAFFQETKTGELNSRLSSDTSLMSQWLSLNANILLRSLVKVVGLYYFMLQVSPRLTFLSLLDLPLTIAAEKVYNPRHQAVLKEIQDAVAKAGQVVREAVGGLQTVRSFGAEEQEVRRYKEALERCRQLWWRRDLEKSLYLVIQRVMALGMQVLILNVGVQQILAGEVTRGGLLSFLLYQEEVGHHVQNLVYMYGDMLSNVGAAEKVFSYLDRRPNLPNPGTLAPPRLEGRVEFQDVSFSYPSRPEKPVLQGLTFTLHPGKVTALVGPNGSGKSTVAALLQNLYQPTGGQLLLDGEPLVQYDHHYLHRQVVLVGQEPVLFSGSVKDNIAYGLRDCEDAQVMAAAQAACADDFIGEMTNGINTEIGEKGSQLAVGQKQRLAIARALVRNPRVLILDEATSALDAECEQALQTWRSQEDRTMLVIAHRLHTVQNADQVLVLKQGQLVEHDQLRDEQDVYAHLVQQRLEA
# T2: hT1/hT2 (human TAP1 with human TAP2-FLAG) (human, UniProt Q03518 1-748; Q03519 1-686)
# T2 sequence 1: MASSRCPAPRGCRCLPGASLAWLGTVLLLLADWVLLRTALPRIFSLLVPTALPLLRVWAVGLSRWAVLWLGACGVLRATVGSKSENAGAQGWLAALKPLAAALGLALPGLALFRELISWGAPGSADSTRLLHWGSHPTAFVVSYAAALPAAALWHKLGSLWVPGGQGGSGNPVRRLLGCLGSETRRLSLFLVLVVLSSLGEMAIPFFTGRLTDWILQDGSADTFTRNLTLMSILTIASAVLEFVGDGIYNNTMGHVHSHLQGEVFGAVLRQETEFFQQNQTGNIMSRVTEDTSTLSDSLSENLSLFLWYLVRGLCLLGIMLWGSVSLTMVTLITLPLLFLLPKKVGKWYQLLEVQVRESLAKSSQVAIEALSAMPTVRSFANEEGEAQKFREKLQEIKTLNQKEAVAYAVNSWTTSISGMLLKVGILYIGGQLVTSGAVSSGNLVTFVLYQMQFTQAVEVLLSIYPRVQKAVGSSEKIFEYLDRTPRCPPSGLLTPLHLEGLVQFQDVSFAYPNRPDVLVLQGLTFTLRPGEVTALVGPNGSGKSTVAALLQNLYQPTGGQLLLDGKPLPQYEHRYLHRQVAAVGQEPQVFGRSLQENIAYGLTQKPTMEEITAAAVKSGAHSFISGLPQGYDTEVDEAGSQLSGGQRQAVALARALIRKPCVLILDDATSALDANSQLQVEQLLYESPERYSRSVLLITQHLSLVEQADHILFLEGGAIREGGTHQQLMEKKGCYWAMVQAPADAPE
# T2 sequence 2: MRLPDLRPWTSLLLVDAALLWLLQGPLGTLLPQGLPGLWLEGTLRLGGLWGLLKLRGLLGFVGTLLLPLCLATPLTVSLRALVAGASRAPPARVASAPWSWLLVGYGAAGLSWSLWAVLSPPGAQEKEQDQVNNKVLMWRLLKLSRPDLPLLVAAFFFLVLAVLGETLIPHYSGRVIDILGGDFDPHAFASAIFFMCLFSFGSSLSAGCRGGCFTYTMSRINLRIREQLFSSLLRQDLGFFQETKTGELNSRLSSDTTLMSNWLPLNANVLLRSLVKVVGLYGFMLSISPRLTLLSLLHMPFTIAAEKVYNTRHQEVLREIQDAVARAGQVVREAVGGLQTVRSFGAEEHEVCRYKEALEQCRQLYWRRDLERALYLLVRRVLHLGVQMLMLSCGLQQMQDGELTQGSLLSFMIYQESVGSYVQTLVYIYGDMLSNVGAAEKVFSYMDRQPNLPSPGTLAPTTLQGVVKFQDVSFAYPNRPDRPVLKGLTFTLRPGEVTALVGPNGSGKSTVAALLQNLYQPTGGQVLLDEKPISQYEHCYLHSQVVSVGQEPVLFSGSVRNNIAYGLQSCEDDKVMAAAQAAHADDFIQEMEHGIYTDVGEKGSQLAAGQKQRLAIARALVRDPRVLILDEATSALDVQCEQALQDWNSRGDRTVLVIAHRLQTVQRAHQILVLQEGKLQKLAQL
# How the values were obtained:
# TAP (Homo sapiens) [1] = biological target: TAP (Homo sapiens) (UniProt Q03518); details: cited from earlier work
# TAP (Homo sapiens) [2] = biological target: TAP (Homo sapiens) (UniProt Q03518); details: cited from earlier work; remark: listed apart in the source
# [3] = biological target: rT1/rT2 (rat TAP1 with a human C-terminus, with rat TAP2-FLAG) (rat | human) (UniProt P36370)
# [4] = biological target: rT1/hT2 (rat TAP1 with a human C-terminus, with human TAP2-FLAG) (rat | human) (UniProt P36370)
# [5] = biological target: T1, hT1/rT2 (human TAP1 with rat TAP2-FLAG); assay: cell-based or functional assay
# [6] = biological target: T2, hT1/hT2 (human TAP1 with human …); assay: cell-based or functional assay
molecule,measurement,setting,value
ICP47 1-48 (from UniProt P03170),Kd,TAP (Homo sapiens) [1],126 nM
ICP47 1-53 (from UniProt P03170),Kd,TAP (Homo sapiens) [2],50 nM
"ICP47-HA (wild-type ICP47 with a C-terminal HA-tag), in CMT64.5 cells (natural protein) MSWALEMADTFLDTMRVGPRTYADVRDEINKRGREDREAARTAVHDPERPLLRSPGLLPEIAPNASLGVAHRRTGGTVTDSPRNPVTR","MHC class I surface expression (mAb 20-8-4) on CMT64.5 cells, ICP47-positive relative to ICP47-negative cells",[3],101 % expression
same,"MHC class I surface expression (mAb 20-8-4) on CMT64.5 cells, ICP47-positive relative to ICP47-negative cells",[4],47 % expression
same,"MHC class I surface expression (mAb 20-8-4) on CMT64.5 cells, ICP47-positive relative to ICP47-negative cells",[5],88 % expression
same,"MHC class I surface expression (mAb 20-8-4) on CMT64.5 cells, ICP47-positive relative to ICP47-negative cells",[6],17 % expression
"ICP47m-HA (ICP47 with Pro50Leu51Leu52 mutated to AlaAlaAla, C-terminal HA-tag), in CMT64.5 cells (natural protein, herpes simplex virus type-1 (HSV-1), UniProt P03170 1-88, looked up) MSWALEMADTFLDTMRVGPRTYADVRDEINKRGREDREAARTAVHDPERAAARSPGLLPEIAPNASLGVAHRRTGGTVTDSPRNPVTR","MHC class I surface expression (mAb 20-8-4) on CMT64.5 cells, ICP47-positive relative to ICP47-negative cells",[6],26 % expression
